According to the RNAGym collection of RNA variant scans (doi:10.1073/pnas.2313332121):
This sample holds only a part of the variants without activity.

B1: TPR 5TU (parent)
chain: GGAUCUUCUCGAUCUAACAAAAAAGACAAAUCUGCCACAAAGCUUGAGAGCAUCUUCGGAUGCAGAGGCGGCAGCCUUCGGUGGCGCGAUAGCGCCAACGUUCUCAACUAUGACACGCAAAACGCGUGCUCCGUUGAAUGGAGUUUAUCAUG

Variants of: B1
Test: polymerase ribozyme fitness, log enrichment relative to wild type (log ratio); higher = more active; in vitro selection for triplet polymerase activity
Summary of the method: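 The heterodimeric triplet polymerase ribozyme's subunits were each mutagenized into PCR-built libraries and transcribed. Every library was selected once, in triplicate, by annealing with a biotinylated primer, the partner subunit and triplets, incubating frozen at −7 °C, gel-excising extended constructs, capturing on streptavidin beads and running RT-PCR. Input and output libraries were Illumina-sequenced, with genotypes kept only at ≥10 input reads and ≥1 read per output. Fitness, from inverse-variance-weighted replicate averages, is the base-2 logarithm of genotype enrichment over wild-type enrichment.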

Row | Variant | polymerase ribozyme fitness (log ratio)
1 | GGAUCUUCUCGAUCUAACAAAAAAGACAAAUCUGCCACAAAGCUUAAGAGCAGCUUUGGAUGCAGAGGCGGCAGCCUUCGGUGGCACGAUAGCGCCAACGUUCUCAACUAUGACCCGCAAAACGCGUGCUCCGUUGAAUGGAGUUUAUCAUG [G46A U53G C57U G86A A115C] | ≤ -4.2
2 | GGAUCUUCUCGAUCUAACAAAAAAGACAAAUCUGCCACAAAGCUUAAGAGCAUCUUCGGAUGCAGAGGCGGCAGCCUUCGGUGGCGCGAUAACGCCAACGUUCUCAACUAUGACACGCAAAACGCGUGCUCCGUUGAAUGGAGUUUAUCAUG [G46A G92A] | -2.92
3 | GGAUCUUCUCGAUCUAACAAAAAAGACAAAUCUGCCACAAAGCUUAAGAGCAUCUUUCGAUGCAGAGGCGGCAGCAUUCGGUGGCGCGAUAGCGCAAACGCUCUCUACUAUGACACGCAAAACGCGUGCUCCGUUGAAUGGAGUUUAUCAUG [G46A C57U G58C C76A C96A U101C A106U] | ≤ -4.2
4 | GGAUCUUCUCGAUCUAACAAAAAAGACAAAUCUGCCACAAAGCUUAAGAGCAUCUUCGGAUGCAGAGGCGGCAGCCUUCGGUGGCGCGAUAGCCCCAACGUUCUCAACUAUGACACGCAAAACGCGUGCUCCGUUGAAUGGAGUUUAUCAUG [G46A G94C] | -1.05
5 | GGAUCUUCUCGAUCUAACAAAAAAGACAAAUCUGCCACAAAGCUUAAGAGCAUCUUCGGAUGCAGAGGCGGCAGUCUUCGGUGGAGCGAUAGCGCCAACGUUCUCGACUAUGACACGCAAAACGCGUGCUCCGUUGAAUGGAGUUUAUCAUG [G46A C75U C85A A106G] | ≤ -4.2
6 | GGAUCUUCUCGAUCUAACAAAAAAGACAAAUCUGCCACAAAGCUUAAGAGCAGCUACGGAUGCAGAGGCGGCAGCCUUCGGUGGCGCGAUCGCGCCAACGUUCGCAACUAUGACACGCAAAACGCGUUCUCCGUUGAAUGGAGUUCAUCAUG [G46A U53G U56A A91C U104G G128U U146C] | ≤ -4.2
7 | GGAUCUUCUCGAUCUAACAAAAAAGACAAAUCUGCCACAAAGCUUAAGAGCAUCUUCGGAUGCAGAGGCUGCAGCCUUCGGUGGGGCGAUAGCGCCAACGUUCUCAACUAUGACACGCAAAACGCGUGCACCGUUGAAUGGAGUUUAUCAUG [G46A G70U C85G U130A] | ≤ -4.2
8 | GGAUCUUCUCGAUCUAACAAAAAAGACAAAUCUGCCACAAAGCUUAAGAGCAUCUUCGGAUGCAGAGGCGGCAGCCUUCGGUGGCAGGAUAGCGCCAACGUUCGCAACUAUGACAUGCAAAACGCGUGCUCCGUUGAAUGGAGUUUAUUAUG [G46A G86A C87G U104G C116U C149U] | ≤ -4.2
9 | GGAUCUUCUCGAUCUAACAAAAAAGACAAAUCUGCCACAAAGCUUAAGAGCAUCUUCGAAUGCAGAGGCGGCAGCCUUCGGUGGCGCGAUAGCGCCAACGUUCUCAACUAUGACACGCAAAACGCGUGCUCCGUUGAAUGGAGUUUAUCAUG [G46A G59A] | 0.222
10 | GGAUCUUCUCGAUCUAACAAAAAAGACAAAUCUGCCACAAAGCUUAAGAGCAUCUUCGGAUGCAGAGGCGCCAGCCUACGGUGGCGCGAUAGCGCCAACGUUCUCAACUAUGACACGCAAAACGCGUGCUCCGUUGAAUGGAGUUUAUCAUG [G46A G71C U78A] | ≤ -4.2
11 | GGAUCUUCUCGAUCUAACAAAAAAGACAAAUCUGCCACAAAGCUUAAGAGCAUCUUCGGAUUCAGAGGCGGCAGCCUUCGGUGGCGCGAUAGCGCCAACGUUCUCAACUAUGACACGCAAAACGCGUGCUCCGUUGAAUGGAGUUUAUCAUG [G46A G62U] | -4.09
12 | GGAUCUUCUCGAUCUAACAAAAAAGACAAAUCUGCCACAAAGCUUAAGAGCAUCUUCGGAUGCAGAUGCGGCAGCCUUCGGUGGCGAGAUAGCGCCAACGUUGUCAACUACGACACGCAAAACGCGUGCUCCGUUGAAUAGAGUUUAUCAUG [G46A G67U C87A C103G U111C G140A] | ≤ -4.2
13 | GGAUCUUCUCGAUCUAACAAAAAAGACAAAUCUGCCACAAAGCUUAAGAGCAUCUUCGGAUGCAGAGGCGGCAGCCUUCGGUGGCGCUAUAGCGCCAACGUUCUCAACUAUGACACGCAAAACGCGUGCUCUGUUGAAUGGAGUUUAUCAUG [G46A G88U C132U] | ≤ -4.2
14 | GGAUCUUCUCGAUCUAACAAAAAAGACAAAUCUGCCACAAAGCUUAAGAGCAUCUUCGGAUGCAGAGGCGGCAGCCUUCGGUGGCGCGAUAGCGCCAACGUUCUCAACUAUGACACGCAAAACCCGUGCUCCGUUGAAUGGAGUUUAUCAUG [G46A G124C] | -1.46
15 | GGAUCUUCUCGAUCUAACAAAAAAGACAAAUCUGCCACAAAGCUUAAGAGCAUCUUCGGAUGCAGAGGCGGCAGCCUUCGGUGGCGCGAUAGCGCCAACGUUCUCAACUAUGACACGCAAAACGAGUGCUCCGCUGAAUGGAGUUUAUCAUG [G46A C125A U134C] | -0.78
16 | GGAUCUUCUCGAUCUAACAAAAAAGACAAAUCUGCCACAAAGCUUAAGACCAUCAACGGAUGCAGAGGCGGCAGCCUUCGGUGGCGUUAUAGCGCCAACGUUCUCAACUAUGACACGCAAAACGAGUGCUCCGUUAAAUGGAGUUUAUCAUG [G46A G50C U55A U56A C87U G88U C125A G136A] | ≤ -4.2
17 | GGAUCUUCUCGAUCUAACAAAAAAGACAAAUCUGCCACAAAGCUUAAGACCAUCUUCGGAUGCAGAGGCGGCAGCCUUAGGUGUCGCGAUAGCGUCAACGUUCUCAACUAUGACCCGCAAAACGCGUGCUCCGUUGAAUGGAGUUUAUCAUG [G46A G50C C79A G84U C95U A115C] | ≤ -4.2
18 | GGAUCUUCUCGAUCUAACAAAAAAGACAAAUCUGCCACAAAGCUUAAGAGCAUCUUCGGAUGCAGAGGCGGCAGCCUUCGGUGGCGCGAUAGUGCCAACGUUCUCAACUAUGACACGCAAAACGCGUGGUCCGUUGAAUGGAGUUUAUCAUG [G46A C93U C129G] | ≤ -4.2
19 | GGAUCUUCUCGAUCUAACAAAAAAGACAAAUCUGCCACAAAGCUUAAGAGCAUCUUCGGAUGCAGAAGCGGCAGCCUUCGGUGGCGAGAUAGCGCCCACGUUCUCAACUAUGACACGCAAAACGCGUGCUCCGUUGAAUGGACUUUAUCAUG [G46A G67A C87A A97C G143C] | ≤ -4.2
